Measured values from PMC13017698.

Assays:
Test in all cases: SEC
[1] = biological target: PahZ1_(Spyx), PahZ1 homolog from Sphingopyxis sp. Root1497, residues 21-313 (Sphingopyxis sp. Root1497)
[2] = biological target: PahZ1Bfg, PahZ1 homolog from Brevifollis gellanilyticus (PahZ1-like domain fused to a CapA-like domain), residues 23-644 (Brevifollis gellanilyticus)
[3] = biological target: PahZ1_(KT-1), poly(aspartic acid) hydrolase PahZ1 from Sphingomonas sp. KT-1 (Sphingomonas sp. KT-1)

PahZ1_(Spyx), PahZ1 homolog from Sphingopyxis sp. Root1497, residues 21-313 (enzyme)
stoichiometry N [1]: 2

PahZ1Bfg, PahZ1 homolog from Brevifollis gellanilyticus (PahZ1-like domain fused to a CapA-like domain), residues 23-644 (enzyme)
stoichiometry N [2]: 2

PahZ1_(KT-1), poly(aspartic acid) hydrolase PahZ1 from Sphingomonas sp. KT-1 (enzyme)
stoichiometry N [3]: 2
